Consider 1 sequence from patent US20160272980.

The subject of this data set is PTRI20 meganuclease (engineered, pCLS17038) (artificial). Nature of the data set: cell_activity. The conditions noted are these: P. tricornutum; 6.9% with SCTREX2 (p124); HGT up to 0.197% with donor (p171); empty vector 0.

“GTTTTACGTTGTACGACGTCTAGC (double strand) [PTRI20 target]” displayed an activity (% mutagenesis) of 0.032.
